Test results as given in US20080280834A1 (UNIVERSITY OF PITTSBURGH OF THE COMMONWEALTH SYSTEM OF …, published 2008).
Like-named read-outs stand apart in the source and are kept apart here. No end group written: not given here.

Tests used:
[1] = target: T1, Recombinant Human Fas/TNFRSF6/Fc Chimera (human, UniProt P25445 26-173); experiment: ELISA, peptide coated, Fas/Fc added
T1 construct: also called FasR; Fas receptor; Fc part of the bought chimera not given
T1 sequence (looked up): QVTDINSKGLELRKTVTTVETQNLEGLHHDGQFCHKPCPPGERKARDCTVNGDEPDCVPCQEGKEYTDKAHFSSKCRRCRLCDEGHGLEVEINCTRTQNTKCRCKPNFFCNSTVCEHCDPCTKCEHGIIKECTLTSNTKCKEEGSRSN
Procedure: (§1) ELISA. Peptides were dissolved in a coating buffer solution (0.05M Sodium Carbonate, 0.02% Sodium Azide, pH=9.6) at the appropriate concentrations to a final concentration of 10 μM. Dilutions were made accordingly to reach desired experimental concentrations. 100 μl aliquots of the peptide solution was added to each well and incubated for 2 hours. All incubations were carried out with shaking at T=37° C. Wells were washed by pipetting solution out of each well, adding 200 μL of washing solution (PBS-Tween; 0.5%), shaking for 15 minutes and emptying each well. Three wash cycles were carried out prior to addition of 200 μL of blocking solution (1% BSA in PBS buffer) to each well followed by incubation for 2 hours. Wells were then washed (as per above procedure) three times. Protein solutions of the appropriate concentrations (Vₛₒₗᵤₜᵢₒₙ 50 μL) were then added and incubated for 2 hours. After washing three times (as per above protocol) Fas specific antibody solution (˜1:20,000) was added to each well in 100 μL aliquots and incubated for 1 hour. After washing three times (as per above protocol) IgM-HRP solution (˜1:20,000) was added to each well in 100 μL aliquots and incubated (with shaking) for 1 hour at T=37° C. Wells were washed three times prior to the addition of ready-to-use TMD, followed by incubation for 30 minutes. 2M H₂SO₄ (3 drops) was added to stop colorimetric reaction and the absorption was taken at 450 nm on a Perkin-Elmer, Victor3 Model automated plate reader. Data was analyzed using standard regression fits in Excel.
Effect of Flanking Residues on Binding Affinities. […] While this work has shown that tetrapeptides based from the original protein sequence can inhibit the FasL/FasR cell death pathway at low nM concentrations, the ability to improve upon this was examined by looking at the extended sequence on both the N-terminal and C-terminal side of the YLGA (SEQ ID NO:1) motif. Peptides up to 12 amino acids in length were synthesized based on the α-Met sequence and their Kₐ values measured for the Fas receptor, Table 7.

TNFR1 [2] = target: T2, TNFR1; experiment: method for TNFR not described
T2 construct: The same entry is used for the Kd and for the EC50 rows
T2 sequence (P19438 whole entry): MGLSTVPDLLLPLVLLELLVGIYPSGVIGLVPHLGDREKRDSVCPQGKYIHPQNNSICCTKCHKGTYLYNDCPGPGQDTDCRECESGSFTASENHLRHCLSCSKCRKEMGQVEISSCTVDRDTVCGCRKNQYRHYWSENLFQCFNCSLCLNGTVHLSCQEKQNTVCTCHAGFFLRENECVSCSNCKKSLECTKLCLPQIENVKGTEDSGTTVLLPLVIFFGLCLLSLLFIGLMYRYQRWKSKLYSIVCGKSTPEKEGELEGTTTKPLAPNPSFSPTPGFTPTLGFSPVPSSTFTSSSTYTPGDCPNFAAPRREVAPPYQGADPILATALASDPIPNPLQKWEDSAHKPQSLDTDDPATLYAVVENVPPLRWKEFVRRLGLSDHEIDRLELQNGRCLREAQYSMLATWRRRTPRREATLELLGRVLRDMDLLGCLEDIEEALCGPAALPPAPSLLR

[3] = target: T1, Recombinant Human Fas/TNFRSF6/Fc Chimera; experiment: ELISA, peptide coated, Fas/Fc added; remark: listed apart in the source
Procedure: as §1
(§2) Effect of Amino Acid Substitution on Binding Affinities. […] In the first series of peptides, alterations were made only to the tyrosine residue while retaining the final three amino acids homologous in the parent sequence (LGA).

TNFR1 [4] = target: T2, TNFR1; experiment: cell-based or functional assay
[5] = target: T3, Fas receptor on Jurkat cells (UniProt P25445 26-335, limits assumed); experiment: cell-based or functional assay
T3 sequence (looked up): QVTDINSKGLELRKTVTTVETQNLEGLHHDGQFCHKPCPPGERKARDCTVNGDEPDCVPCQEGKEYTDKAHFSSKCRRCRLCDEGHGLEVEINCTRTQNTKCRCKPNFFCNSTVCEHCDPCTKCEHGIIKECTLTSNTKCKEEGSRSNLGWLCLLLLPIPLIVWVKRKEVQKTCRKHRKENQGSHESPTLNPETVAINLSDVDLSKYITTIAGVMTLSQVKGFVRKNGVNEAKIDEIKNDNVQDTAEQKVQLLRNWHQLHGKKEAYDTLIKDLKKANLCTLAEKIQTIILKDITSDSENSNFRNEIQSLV

[6] = target: T3, Fas receptor on Jurkat cells; experiment: cell-based or functional assay; remark: listed apart in the source
[7] = target: T1, Recombinant Human Fas/TNFRSF6/Fc Chimera; experiment: ELISA, peptide coated, Fas/Fc added; remark: listed apart in the source
Procedure: as §1, §2

[8] = target: T1, Recombinant Human Fas/TNFRSF6/Fc Chimera; experiment: ELISA, peptide coated, Fas/Fc added; remark: listed apart in the source
Procedure: as §1, §2

[9] = target: T1, Recombinant Human Fas/TNFRSF6/Fc Chimera; experiment: ELISA, peptide coated, Fas/Fc added; remark: listed apart in the source
Procedure: as §1, §2

[10] = target: T1, Recombinant Human Fas/TNFRSF6/Fc Chimera; experiment: ELISA, peptide coated, Fas/Fc added; remark: listed apart in the source
Procedure: as §1, with “After washing three times (as per above protocol) IgM-HRP solution (˜1:20,000) was added to each well in 100 μL aliquots and incubated (with shaking) for 1 hour at T=37° C.” left out

[11] = target: T1, Recombinant Human Fas/TNFRSF6/Fc Chimera; experiment: ELISA, peptide coated, Fas/Fc added; remark: listed apart in the source
Procedure: as §1, §2

Which Ka [1] does the source give for HHIYLGA [HHI YLG A] here?
The Ka was 3e+08 M⁻¹.

How did the Ka [1] turn out when IYLGATNYIY [I YLG ATN YIY] was run?
The Ka was 3e+08 M⁻¹.

YLGATNYIY [YLG ATN YIY] was tested. Which Ka [1] did it give?
Its Ka is 3e+08 M⁻¹.

How did the Ka [1] turn out when HIYLGATNYIY [HI YLG ATN YIY] was run?
Its Ka is 3e+08 M⁻¹.

How did the Ka [1] turn out when HHIYLGATN [HHI YLG ATN] was run?
Its Ka is 3e+08 M⁻¹.

Which Ka [1] does the source give for HHIYLGAT [HHI YLG AT] here?
The Ka was 3e+08 M⁻¹.

Which Ka [1] does the source give for HHIYLGATNY [HHI YLG ATN Y] here?
Its Ka is 3e+08 M⁻¹.

B1: YLGA (peptide)
peptide: YLGA
modifications: not fully specified
notes: Synthetic peptide; also called original tyrosine peptide
For B1, which Kd (TNFR1 [2]) is on record?
The Kd was 6 nM.

What about the Ka [3] of the same binder?
Its Ka is 2e+08 M⁻¹.

What about the “EC50 (TNFR)” value (TNFR1 [4]) of the same binder?
Its value is 11 nM.

And the “EC50 (FasR)” value [5]?
The value was 6 nM.

What about the “EC50 (nM), cell viability of Jurkat cells exposed to recombinant FasL” value (“EC50 (nM), cell viability” for short) [6] of the same binder?
Its value is 6 nM.

And the Ka [7]?
The Ka was 2e+08 M⁻¹.

And the Ka [8]?
The Ka was 2e+08 M⁻¹.

What about the Ka [9] of the same binder?
The Ka was 2e+08 M⁻¹.

And the Kd [10]?
Its Kd is 5 nM.

And the Ka [11]?
The Ka was 2e+08 M⁻¹.

And the Kd [11]?
The Kd was 5 nM.

How did the Ka [9] turn out when DLGA was run?
The Ka was 5e+07 M⁻¹.

What about the “fold drop off against YLGA” value [9] of the same binder?
The value was 4 fold.

How did the Ka [9] turn out when FLGA was run?
The Ka was 1e+08 M⁻¹.

And the Ka [11]?
The Ka was 1e+08 M⁻¹.

And the Kd [11]?
The Kd was 10 nM.

Does YFGA bind [3]?
Result: no binding (tested: concentration range of 1 nM to 1 µM)

How did the “EC50 (nM), cell viability” value [6] turn out when SLGA was run?
The value was 6 nM.

What about the Ka [9] of the same binder?
Its Ka is 2e+08 M⁻¹.

And the Ka [11]?
Its Ka is 2e+08 M⁻¹.

What about the Kd [11] of the same binder?
The Kd was 5 nM.

How did the Ka [8] turn out when YLLA was run?
The Ka was 1e+06 M⁻¹.

And the “fold decrease in Ka” value [9]?
Its value is 20 fold.

How did the Ka [9] turn out when TLGA was run?
The Ka was 2e+08 M⁻¹.

With YGGA as the binder, how does the Ka [3] read?
Its Ka is 1e+07 M⁻¹.

And the “fold decrease in Ka” value [9]?
Its value is 20 fold.

What does the source list for LLGA?
EC50 (nM), cell viability of Jurkat cells exposed to recombinant FasL [6]: 93 nM; Ka [9]: 1e+07 M⁻¹; Ka [11]: 1e+07 M⁻¹; Kd [11]: 88 nM

Does GLGA bind [9]?
Result: no binding (tested: concentration range of 1 nM to 1 µM)

Which Ka [9] does the source give for ELGA here?
The Ka was 5e+07 M⁻¹.

And the “fold drop off against YLGA” value [9]?
Its value is 4 fold.

Does YLIA bind [8]?
Result: no binding (tested: concentration range of 1 nM to 1 µM)

For ILGA, which Ka [9] is on record?
Its Ka is 9e+06 M⁻¹.

Which Ka [3] does the source give for YIGA here?
The Ka was 2e+08 M⁻¹.

Which results are given for YLGL?
Ka [7]: 3e+07 M⁻¹; times less affinity than YLGA [9]: ~10 times

YLGI was tested. Which Ka [7] did it give?
The Ka was 3e+07 M⁻¹.

And the “times less affinity than YLGA” value [9]?
Its value is roughly 10 times.

With YLGG as the binder, how does the Kd (TNFR1 [2]) read?
The Kd was 4 nM.

What about the “EC50 (TNFR)” value (TNFR1 [4]) of the same binder?
Its value is 8 nM.

And the “EC50 (FasR)” value [5]?
Its value is 52 nM.

What about the “EC50 (nM), cell viability” value [6] of the same binder?
Its value is 52 nM.

And the Ka [7]?
The Ka was 4e+07 M⁻¹.

And the “times less affinity than YLGA” value [9]?
Its value is roughly 10 times.

And the Kd [10]?
Its Kd is 28 nM.

What about the Ka [11] of the same binder?
The Ka was 4e+07 M⁻¹.

What about the Kd [11] of the same binder?
Its Kd is 28 nM.

For YVGA, which Ka [3] is on record?
The Ka was 2e+08 M⁻¹.

Does YLGT bind [7]?
Result: no binding (tested: concentration range of 1 nM to 1 µM)

Does YTGA bind [3]?
Result: no binding (tested: concentration range of 1 nM to 1 µM)

Does ALGA bind [9]?
Result: no binding (tested: concentration range of 1 nM to 1 µM)

How did the Ka [3] turn out when YAGA was run?
The Ka was 3e+08 M⁻¹.

What about the “EC50 (nM), cell viability” value [6] of the same binder?
The value was 6 nM.

And the Ka [11]?
The Ka was 3e+08 M⁻¹.

And the Kd [11]?
Its Kd is 4 nM.

Which results are given for YLAA?
Ka [8]: 1e+06 M⁻¹; fold decrease in Ka [9]: 20 fold

With WLGA as the binder, how does the Ka [9] read?
Its Ka is 8e+07 M⁻¹.

And the Ka [11]?
Its Ka is 8e+07 M⁻¹.

What about the Kd [11] of the same binder?
Its Kd is 13 nM.

With KLGA as the binder, how does the Ka [9] read?
The Ka was 8e+06 M⁻¹.

For HHIYLGATNYIY [HHI YLG ATN YIY], which Ka [1] is on record?
Its Ka is 3e+08 M⁻¹.

How did the Ka [1] turn out when HHIYLGATNYI [HHI YLG ATN YI] was run?
The Ka was 3e+08 M⁻¹.
